Holding throughout (assay): radioligand binding
For assay [1], the target named is CXCR3-B (alternatively spliced variant of CXCR3) (human) (UniProt P49682).
The target of assay [2] is CXCR3-A (classic CXC chemokine receptor 3) (human) (UniProt P49682).
The target in assay [3] is CXCR3-B (alternatively spliced variant of CXCR3) (human) (UniProt P49682). This is another data set of the same source.
Assay [4] concerns the target CXCR3-B on the renal carcinoma ACHN cell line (human (endogenous in ACHN)) (UniProt P49682).
The target in assay [5] is T1, CXCR3-B on the renal carcinoma ACHN cell line (human (endogenous in ACHN), UniProt P49682-2 1-415).
T1 sequence (looked up): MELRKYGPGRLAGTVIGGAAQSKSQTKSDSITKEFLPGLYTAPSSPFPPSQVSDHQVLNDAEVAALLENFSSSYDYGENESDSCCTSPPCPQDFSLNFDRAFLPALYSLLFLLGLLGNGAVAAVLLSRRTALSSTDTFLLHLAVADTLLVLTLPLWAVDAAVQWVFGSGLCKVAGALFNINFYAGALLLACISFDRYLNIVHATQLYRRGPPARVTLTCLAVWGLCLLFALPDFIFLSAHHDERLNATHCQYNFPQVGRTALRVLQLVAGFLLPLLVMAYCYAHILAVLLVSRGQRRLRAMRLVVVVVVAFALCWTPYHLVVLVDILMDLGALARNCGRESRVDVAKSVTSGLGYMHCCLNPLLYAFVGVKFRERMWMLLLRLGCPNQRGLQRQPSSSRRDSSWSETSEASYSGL

Assay [6] has as its target T2, CXCR3-A (classic CXC chemokine receptor 3) (human, UniProt P49682-1 1-368).
T2 sequence (looked up): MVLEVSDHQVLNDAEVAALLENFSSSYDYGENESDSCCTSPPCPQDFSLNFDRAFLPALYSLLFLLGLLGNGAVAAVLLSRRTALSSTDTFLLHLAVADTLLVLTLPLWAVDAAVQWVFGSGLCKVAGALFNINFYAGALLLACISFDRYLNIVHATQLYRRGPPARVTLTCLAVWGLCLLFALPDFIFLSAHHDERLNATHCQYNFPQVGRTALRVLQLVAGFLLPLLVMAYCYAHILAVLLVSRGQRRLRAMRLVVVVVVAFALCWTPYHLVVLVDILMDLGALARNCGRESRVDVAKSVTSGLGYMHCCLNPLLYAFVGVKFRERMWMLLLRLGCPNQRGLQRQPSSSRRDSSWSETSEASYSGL

The target of assay [7] is T3, CXCR3-B (alternatively spliced variant of CXCR3) (human, UniProt P49682-2 1-415).
T3 sequence (looked up): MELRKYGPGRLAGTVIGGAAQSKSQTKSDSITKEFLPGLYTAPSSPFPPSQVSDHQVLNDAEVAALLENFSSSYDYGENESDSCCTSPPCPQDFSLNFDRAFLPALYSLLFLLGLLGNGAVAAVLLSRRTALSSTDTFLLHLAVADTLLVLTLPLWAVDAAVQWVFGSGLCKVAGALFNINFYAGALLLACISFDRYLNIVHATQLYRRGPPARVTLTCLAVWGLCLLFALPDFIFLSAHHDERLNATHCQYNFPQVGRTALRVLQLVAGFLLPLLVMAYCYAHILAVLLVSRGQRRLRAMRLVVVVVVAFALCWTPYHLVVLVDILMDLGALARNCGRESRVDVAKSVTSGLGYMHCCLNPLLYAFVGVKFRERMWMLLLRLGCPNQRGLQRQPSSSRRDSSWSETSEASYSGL

Read-outs that look alike come from different tables or passages of the source.

In the case of CXCL4/PF4 (platelet factor 4) (ligand), the IC50 is 1.85 nM in assay [1], 448 nM in assay [2], 7.46 nM in assay [3] and 6.83 nM in assay [4].

B1: CXCL11/I-TAC (ligand, human, UniProt O14625 22-94, looked up)
chain: FPMFKRGRCLCIGPGVKAVKVADIEKASIMYPSNNCDKIEVIITLKENKGQRCLNPKSKQARLIIKKVERKNF
Regarding B1, the results for the IC50 in assay [5], in assay [6] and in assay [7] were 49.6 ± 11.3 nM, 0.41 ± 0.14 nM and 32 ± 10.2 nM, respectively.

B2: CXCL9/Mig (ligand, human, UniProt Q07325 23-125, looked up)
chain: TPVVRKGRCSCISTNQGTIHLQSLKDLKQFAPSPSCEKIEIIATLKNGVQTCLNPDSADVKELIKKWEKQVSQKKKQKNGKKHQKKKVLKVRKSQRSRQKKTT
With B2, the IC50 in assay [5] was determined as 88.5 ± 69.3 nM; in assay [6], 33 ± 24 nM; in assay [7], 133 ± 46.5 nM.
